Laboratory results: article PMC3686486

Experiments:
[1] = molecular target: Bacillus thuringiensis subsp. israelensis Cry4Ba toxin (Bacillus thuringiensis subsp. israelensis); test: SPR
[2] = molecular target: Bacillus thuringiensis subsp. israelensis Cry11Aa toxin (Bacillus thuringiensis subsp. israelensis) (UniProt P21256); test: SPR
[3] = molecular target: Bacillus thuringiensis subsp. israelensis Cry4Ba toxin (Bacillus thuringiensis subsp. israelensis); test: ELISA
[4] = molecular target: Bacillus thuringiensis subsp. israelensis Cry11Aa toxin (Bacillus thuringiensis subsp. israelensis) (UniProt P21256); test: ELISA

Chain of Bacillus thuringiensis subsp. israelensis Cry4Ba toxin (Bacillus thuringiensis subsp. israelensis) (P05519 whole entry): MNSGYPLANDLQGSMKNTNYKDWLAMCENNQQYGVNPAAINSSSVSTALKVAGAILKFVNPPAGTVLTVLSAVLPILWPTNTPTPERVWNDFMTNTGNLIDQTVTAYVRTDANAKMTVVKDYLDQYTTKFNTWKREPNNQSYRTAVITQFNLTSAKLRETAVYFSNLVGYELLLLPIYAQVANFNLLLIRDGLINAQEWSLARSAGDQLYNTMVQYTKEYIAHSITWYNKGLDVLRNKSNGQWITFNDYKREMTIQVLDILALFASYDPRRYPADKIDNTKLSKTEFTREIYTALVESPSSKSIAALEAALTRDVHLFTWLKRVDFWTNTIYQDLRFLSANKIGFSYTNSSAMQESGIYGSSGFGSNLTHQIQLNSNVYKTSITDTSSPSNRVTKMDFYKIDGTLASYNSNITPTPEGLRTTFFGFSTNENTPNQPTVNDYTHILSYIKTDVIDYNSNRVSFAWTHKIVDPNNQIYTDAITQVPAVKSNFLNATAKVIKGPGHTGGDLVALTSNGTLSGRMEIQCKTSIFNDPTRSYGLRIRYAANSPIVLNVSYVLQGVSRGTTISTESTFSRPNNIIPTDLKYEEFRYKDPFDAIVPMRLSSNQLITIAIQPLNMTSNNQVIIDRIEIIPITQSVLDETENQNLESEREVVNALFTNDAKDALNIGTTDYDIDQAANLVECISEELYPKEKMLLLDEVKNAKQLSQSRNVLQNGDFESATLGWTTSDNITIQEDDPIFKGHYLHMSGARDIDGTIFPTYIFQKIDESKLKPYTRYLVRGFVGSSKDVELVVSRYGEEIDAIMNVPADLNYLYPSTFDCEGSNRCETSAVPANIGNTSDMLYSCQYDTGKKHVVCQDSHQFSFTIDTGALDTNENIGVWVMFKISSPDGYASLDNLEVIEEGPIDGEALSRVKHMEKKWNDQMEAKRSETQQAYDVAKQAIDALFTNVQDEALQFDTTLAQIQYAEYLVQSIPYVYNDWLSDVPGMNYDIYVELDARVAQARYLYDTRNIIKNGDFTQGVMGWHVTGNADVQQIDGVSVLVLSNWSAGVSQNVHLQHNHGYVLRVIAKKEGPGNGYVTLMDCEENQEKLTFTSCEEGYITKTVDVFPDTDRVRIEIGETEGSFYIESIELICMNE

Aedes aegypti cadherin receptor fragment CR7–11 (cadherin repeats 7–11) (domain or fragment)
Kd [1]: 154 nM | koff [1]: 0.00203 s⁻¹ | koff [2]: 0.00252 s⁻¹ | Kd [3]: 135 nM | Kd [4]: 14.8 nM
